Patent US20150344570A1 (published 2015)

How the values were obtained:
[1] = biological target: T1, FcγRIa (human, UniProt P12314 16-292); assay: ratio of He/Con_1a to He/Con_2b (FcγRIa over FcγRIIb), SPR
T1 construct: extracellular domain; also called FcgRI; CD64
Procedure: (§1) The heterodimerized antibodies He Abs in which one of the H chains was introduced with an alteration were assayed for their binding activities to each activating FcγR and inhibitory FcγR according to the method described in Example 4. […] The activating FcγRs in FIGS. 26, 27, 28, and 29 are FcγRIa, FcγRIIa (R), FcγRIIa (H), and FcγRIIIa, respectively.
(§2) Analysis of interaction between objective antibody and the FcγR was carried out using Biacore T100 (GE Healthcare). HBS-EP+ (GE Healthcare) was used as the running buffer, and the measurement temperature was set to 25° C. Chips produced by immobilizing the antigen peptide by the amine coupling method to a Series S Sencor Chip CM5 (GE Healthcare), or alternatively, chips produced by allowing preliminarily biotinylated antigen peptides to interact with and immobilize onto a Series S Sensor Chip SA (certified) (GE Healthcare) were used. Antibodies of interest were captured onto an antigen peptide-immobilized chip, and allowed to interact to each FcγR diluted with running buffer. To regenerate and repeatedly use the chip, the antibodies captured on the chip were washed off by reacting 10 mM glycine-HCl, pH 1.5.
T1 sequence (P12314 16-292): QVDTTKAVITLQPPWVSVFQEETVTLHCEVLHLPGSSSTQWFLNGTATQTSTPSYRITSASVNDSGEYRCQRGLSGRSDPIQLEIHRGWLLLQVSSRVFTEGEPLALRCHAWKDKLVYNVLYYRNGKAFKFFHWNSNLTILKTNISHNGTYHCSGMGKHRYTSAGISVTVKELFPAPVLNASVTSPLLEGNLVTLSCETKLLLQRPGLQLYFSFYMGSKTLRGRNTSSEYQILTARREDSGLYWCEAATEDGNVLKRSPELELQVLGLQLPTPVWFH

[2] = biological target: T1, FcγRIa; assay: SPR (Biacore), captured antibody, soluble FcγR; relative to GpH7-A5/GpH7-B3/GpL16-k0 = 100
Procedure: as §1, §2

[3] = biological target: T2, FcγRIa (human, UniProt P12314 16-292); assay: SPR (Biacore), relative binding; control HeCon Ab GpH7-A5/GpH7-B3/GpL16-k0
T2 construct: extracellular domain; also called FcgRI; FcgRIa; not shown: His tag attached to the C terminus
T2 sequence (P12314 16-292): as above

| He_1a/2b (Ia/IIb) [1] | He/Con_1a [2] | He/Con_1a [3] | Binder |
| --- | --- | --- | --- |
| – | – | 104 % of control (=100) | GpH7-A5/GpH7-B3 variant Y296_03V/GpL16-k0 (antibody, human IgG1, kappa, Alteration in one H chain only; also called He Ab Y296_03V) heavy 1: not shown heavy 2: not shown light: DIVMTQSPLSLPVTPGEPASISCQASESLVHSNRNTYLHWYLQKPGQSPQLLIYKVSNRFSGVPDRFSGSGSGTDFTLKISRVEAEDVGVYYCSQNTHVPPTFGQGTKVEIERTVAAPSVFIFPPSDEQLKSGTASVVCLLNNFYPREAKVQWKVDNALQSGNSQESVTEQDSKDSTYSLSSTLTLSKADYEKHKVYACEVTHQGLSSPVTKSFNRGEC |
| – | – | 104 % of control (=100) | GpH7-A5/GpH7-B3 variant Y296_07I/GpL16-k0 (antibody, human IgG1, kappa, Alteration in one H chain only; also called He Ab Y296_07I) heavy 1: not shown heavy 2: not shown light: DIVMTQSPLSLPVTPGEPASISCQASESLVHSNRNTYLHWYLQKPGQSPQLLIYKVSNRFSGVPDRFSGSGSGTDFTLKISRVEAEDVGVYYCSQNTHVPPTFGQGTKVEIERTVAAPSVFIFPPSDEQLKSGTASVVCLLNNFYPREAKVQWKVDNALQSGNSQESVTEQDSKDSTYSLSSTLTLSKADYEKHKVYACEVTHQGLSSPVTKSFNRGEC |
| – | – | 105 % of control (=100) | GpH7-A5/GpH7-B3 variant S337_14T/GpL16-k0 (antibody, human IgG1, kappa, Alteration in one H chain only; also called He Ab S337_14T) heavy 1: not shown heavy 2: not shown light: DIVMTQSPLSLPVTPGEPASISCQASESLVHSNRNTYLHWYLQKPGQSPQLLIYKVSNRFSGVPDRFSGSGSGTDFTLKISRVEAEDVGVYYCSQNTHVPPTFGQGTKVEIERTVAAPSVFIFPPSDEQLKSGTASVVCLLNNFYPREAKVQWKVDNALQSGNSQESVTEQDSKDSTYSLSSTLTLSKADYEKHKVYACEVTHQGLSSPVTKSFNRGEC |
| 8.51 | 78.6 % of control | – | GpH7-A5/GpH7-B3 variant L328_12R/GpL16-k0 (antibody, human IgG1, kappa, He Ab; mutation in the GpH7-B3 chain only; also called He Ab) heavy 1: not shown heavy 2: not shown light: DIVMTQSPLSLPVTPGEPASISCQASESLVHSNRNTYLHWYLQKPGQSPQLLIYKVSNRFSGVPDRFSGSGSGTDFTLKISRVEAEDVGVYYCSQNTHVPPTFGQGTKVEIERTVAAPSVFIFPPSDEQLKSGTASVVCLLNNFYPREAKVQWKVDNALQSGNSQESVTEQDSKDSTYSLSSTLTLSKADYEKHKVYACEVTHQGLSSPVTKSFNRGEC |
| – | – | 105 % of control (=100) | GpH7-A5/GpH7-B3 variant T335_13S/GpL16-k0 (antibody, human IgG1, kappa, Alteration in one H chain only; also called He Ab T335_13S) heavy 1: not shown heavy 2: not shown light: DIVMTQSPLSLPVTPGEPASISCQASESLVHSNRNTYLHWYLQKPGQSPQLLIYKVSNRFSGVPDRFSGSGSGTDFTLKISRVEAEDVGVYYCSQNTHVPPTFGQGTKVEIERTVAAPSVFIFPPSDEQLKSGTASVVCLLNNFYPREAKVQWKVDNALQSGNSQESVTEQDSKDSTYSLSSTLTLSKADYEKHKVYACEVTHQGLSSPVTKSFNRGEC |
| – | – | 111 % of control (=100) | GpH7-A5/GpH7-B3 variant Y300_16H/GpL16-k0 (antibody, human IgG1, kappa, Alteration in one H chain only; also called He Ab Y300_16H) heavy 1: not shown heavy 2: not shown light: DIVMTQSPLSLPVTPGEPASISCQASESLVHSNRNTYLHWYLQKPGQSPQLLIYKVSNRFSGVPDRFSGSGSGTDFTLKISRVEAEDVGVYYCSQNTHVPPTFGQGTKVEIERTVAAPSVFIFPPSDEQLKSGTASVVCLLNNFYPREAKVQWKVDNALQSGNSQESVTEQDSKDSTYSLSSTLTLSKADYEKHKVYACEVTHQGLSSPVTKSFNRGEC |
| – | – | 104 % of control (=100) | GpH7-A5/GpH7-B3 variant T335_01G/GpL16-k0 (antibody, human IgG1, kappa, Alteration in one H chain only; also called He Ab T335_01G) heavy 1: not shown heavy 2: not shown light: DIVMTQSPLSLPVTPGEPASISCQASESLVHSNRNTYLHWYLQKPGQSPQLLIYKVSNRFSGVPDRFSGSGSGTDFTLKISRVEAEDVGVYYCSQNTHVPPTFGQGTKVEIERTVAAPSVFIFPPSDEQLKSGTASVVCLLNNFYPREAKVQWKVDNALQSGNSQESVTEQDSKDSTYSLSSTLTLSKADYEKHKVYACEVTHQGLSSPVTKSFNRGEC |

The next lines start with the binder.

| Binder | He_1a/2b (Ia/IIb) [1] | He/Con_1a [2] | He/Con_1a [3] |
| --- | --- | --- | --- |
| GpH7-A5/GpH7-B3 variant L328_11K/GpL16-k0 (antibody, human IgG1, kappa, He Ab; mutation in the GpH7-B3 chain only; also called He Ab) heavy 1: not shown heavy 2: not shown light: DIVMTQSPLSLPVTPGEPASISCQASESLVHSNRNTYLHWYLQKPGQSPQLLIYKVSNRFSGVPDRFSGSGSGTDFTLKISRVEAEDVGVYYCSQNTHVPPTFGQGTKVEIERTVAAPSVFIFPPSDEQLKSGTASVVCLLNNFYPREAKVQWKVDNALQSGNSQESVTEQDSKDSTYSLSSTLTLSKADYEKHKVYACEVTHQGLSSPVTKSFNRGEC | 10.5 | 79.2 % of control | – |
| GpH7-A5/GpH7-B3 variant Y296_02A/GpL16-k0 (antibody, human IgG1, kappa, Alteration in one H chain only; also called He Ab Y296_02A) heavy 1: not shown heavy 2: not shown light: DIVMTQSPLSLPVTPGEPASISCQASESLVHSNRNTYLHWYLQKPGQSPQLLIYKVSNRFSGVPDRFSGSGSGTDFTLKISRVEAEDVGVYYCSQNTHVPPTFGQGTKVEIERTVAAPSVFIFPPSDEQLKSGTASVVCLLNNFYPREAKVQWKVDNALQSGNSQESVTEQDSKDSTYSLSSTLTLSKADYEKHKVYACEVTHQGLSSPVTKSFNRGEC | – | – | 103 % of control (=100) |
| GpH7-A5/GpH7-B3 variant T335_02A/GpL16-k0 (antibody, human IgG1, kappa, Alteration in one H chain only; also called He Ab T335_02A) heavy 1: not shown heavy 2: not shown light: DIVMTQSPLSLPVTPGEPASISCQASESLVHSNRNTYLHWYLQKPGQSPQLLIYKVSNRFSGVPDRFSGSGSGTDFTLKISRVEAEDVGVYYCSQNTHVPPTFGQGTKVEIERTVAAPSVFIFPPSDEQLKSGTASVVCLLNNFYPREAKVQWKVDNALQSGNSQESVTEQDSKDSTYSLSSTLTLSKADYEKHKVYACEVTHQGLSSPVTKSFNRGEC | – | – | 103 % of control (=100) |
| GpH7-A5/GpH7-B3 variant Y300_07I/GpL16-k0 (antibody, human IgG1, kappa, Alteration in one H chain only; also called He Ab Y300_07I) heavy 1: not shown heavy 2: not shown light: DIVMTQSPLSLPVTPGEPASISCQASESLVHSNRNTYLHWYLQKPGQSPQLLIYKVSNRFSGVPDRFSGSGSGTDFTLKISRVEAEDVGVYYCSQNTHVPPTFGQGTKVEIERTVAAPSVFIFPPSDEQLKSGTASVVCLLNNFYPREAKVQWKVDNALQSGNSQESVTEQDSKDSTYSLSSTLTLSKADYEKHKVYACEVTHQGLSSPVTKSFNRGEC | – | – | 108 % of control (=100) |
| GpH7-A5/GpH7-B3 variant S337_16H/GpL16-k0 (antibody, human IgG1, kappa, Alteration in one H chain only; also called He Ab S337_16H) heavy 1: not shown heavy 2: not shown light: DIVMTQSPLSLPVTPGEPASISCQASESLVHSNRNTYLHWYLQKPGQSPQLLIYKVSNRFSGVPDRFSGSGSGTDFTLKISRVEAEDVGVYYCSQNTHVPPTFGQGTKVEIERTVAAPSVFIFPPSDEQLKSGTASVVCLLNNFYPREAKVQWKVDNALQSGNSQESVTEQDSKDSTYSLSSTLTLSKADYEKHKVYACEVTHQGLSSPVTKSFNRGEC | – | – | 105 % of control (=100) |
| GpH7-A5/GpH7-B3 variant S337_11K/GpL16-k0 (antibody, human IgG1, kappa, Alteration in one H chain only; also called He Ab S337_11K) heavy 1: not shown heavy 2: not shown light: DIVMTQSPLSLPVTPGEPASISCQASESLVHSNRNTYLHWYLQKPGQSPQLLIYKVSNRFSGVPDRFSGSGSGTDFTLKISRVEAEDVGVYYCSQNTHVPPTFGQGTKVEIERTVAAPSVFIFPPSDEQLKSGTASVVCLLNNFYPREAKVQWKVDNALQSGNSQESVTEQDSKDSTYSLSSTLTLSKADYEKHKVYACEVTHQGLSSPVTKSFNRGEC | – | – | 104 % of control (=100) |
| GpH7-A5/GpH7-B3 variant S337_18N/GpL16-k0 (antibody, human IgG1, kappa, Alteration in one H chain only; also called He Ab S337_18N) heavy 1: not shown heavy 2: not shown light: DIVMTQSPLSLPVTPGEPASISCQASESLVHSNRNTYLHWYLQKPGQSPQLLIYKVSNRFSGVPDRFSGSGSGTDFTLKISRVEAEDVGVYYCSQNTHVPPTFGQGTKVEIERTVAAPSVFIFPPSDEQLKSGTASVVCLLNNFYPREAKVQWKVDNALQSGNSQESVTEQDSKDSTYSLSSTLTLSKADYEKHKVYACEVTHQGLSSPVTKSFNRGEC | – | – | 105 % of control (=100) |
| GpH7-A5/GpH7-B3 variant Y296_08L/GpL16-k0 (antibody, human IgG1, kappa, Alteration in one H chain only; also called He Ab Y296_08L) heavy 1: not shown heavy 2: not shown light: DIVMTQSPLSLPVTPGEPASISCQASESLVHSNRNTYLHWYLQKPGQSPQLLIYKVSNRFSGVPDRFSGSGSGTDFTLKISRVEAEDVGVYYCSQNTHVPPTFGQGTKVEIERTVAAPSVFIFPPSDEQLKSGTASVVCLLNNFYPREAKVQWKVDNALQSGNSQESVTEQDSKDSTYSLSSTLTLSKADYEKHKVYACEVTHQGLSSPVTKSFNRGEC | – | – | 104 % of control (=100) |
| GpH7-A5/GpH7-B3 variant S324_09D/GpL16-k0 (antibody, human IgG1, kappa, Alteration in one H chain only; also called He Ab S324_09D) heavy 1: not shown heavy 2: not shown light: DIVMTQSPLSLPVTPGEPASISCQASESLVHSNRNTYLHWYLQKPGQSPQLLIYKVSNRFSGVPDRFSGSGSGTDFTLKISRVEAEDVGVYYCSQNTHVPPTFGQGTKVEIERTVAAPSVFIFPPSDEQLKSGTASVVCLLNNFYPREAKVQWKVDNALQSGNSQESVTEQDSKDSTYSLSSTLTLSKADYEKHKVYACEVTHQGLSSPVTKSFNRGEC | – | – | 104 % of control (=100) |
| GpH7-A5/GpH7-B3 variant S324_10E/GpL16-k0 (antibody, human IgG1, kappa, Alteration in one H chain only; also called He Ab S324_10E) heavy 1: not shown heavy 2: not shown light: DIVMTQSPLSLPVTPGEPASISCQASESLVHSNRNTYLHWYLQKPGQSPQLLIYKVSNRFSGVPDRFSGSGSGTDFTLKISRVEAEDVGVYYCSQNTHVPPTFGQGTKVEIERTVAAPSVFIFPPSDEQLKSGTASVVCLLNNFYPREAKVQWKVDNALQSGNSQESVTEQDSKDSTYSLSSTLTLSKADYEKHKVYACEVTHQGLSSPVTKSFNRGEC | – | – | 105 % of control (=100) |
| GpH7-A5/GpH7-B3 variant S298_09D/GpL16-k0 (antibody, human IgG1, kappa, Alteration in one H chain only; also called He Ab S298_09D) heavy 1: not shown heavy 2: not shown light: DIVMTQSPLSLPVTPGEPASISCQASESLVHSNRNTYLHWYLQKPGQSPQLLIYKVSNRFSGVPDRFSGSGSGTDFTLKISRVEAEDVGVYYCSQNTHVPPTFGQGTKVEIERTVAAPSVFIFPPSDEQLKSGTASVVCLLNNFYPREAKVQWKVDNALQSGNSQESVTEQDSKDSTYSLSSTLTLSKADYEKHKVYACEVTHQGLSSPVTKSFNRGEC | – | – | 106 % of control (=100) |
